Molecular target: the molecule itself
Assay: crystal structure; wild-type JIP1-SH3 at 20 mg/ml; crystals in 0.1 M HEPES pH 7.5, 1-5% PEG 400, 2-2.5 M ammonium sulfate, 20 °C, hanging drop; molecular replacement with PDB 2FPE chains A-B

B1: SH3 domain of the JNK-interacting protein 1 (JIP1), wild type (domain or fragment, human)
chain: GHMEQTHRAIFRFVPRHEDELELEVDDPLLVELQAEDYWYEAYNMRTGARGVFPAYYAIEVTK
notes: N-terminal extension left on the protein after cleavage by the TEV protease; Called dimeric in the legends; The wild-type structure was solved by molecular replacement with chains A-B of PDB 2FPE; also called JIP1-SH3; JIP1-SH3(WT); not shown: His6, N-terminal, cleaved
binding result: binds

From article PMC8866124, “Visualizing protein breathing motions associated with aromatic ring flipping” (Nature, 2022)
